Experimental data taken from the supplement of paper PMC12042874.
± gives the uncertainty stated by the source.

assay: amyloid nucleation score (Sup35N fusion, yeast selection) (log enrichment); library NNK2; higher = more nucleation; inactive = no reads after selection
How it was run: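 Nucleation score is defined as the DiMSum log enrichment of output over input reads, with centring on the mode score of non-aggregating sequences. A minimum of 100 input reads was required for each sequence. Reads came from Illumina sequencing of plasmid inserts from psi-negative yeast expressing Sup35N fused to peptides of 20 random codons, induced with 100 μM copper sulfate for 24 hours and grown 7 days at 30°C on medium lacking adenine and uracil.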

Substance	amyloid nucleation score
YAFHSSWYADRSALLQLN	0.434 ± 0.3
MRLVSSDDFCV	0.097 ± 0.8
LLISSLLTSDLLGPSSSVMD	1.51 ± 0.58
TFLSSC	0.096 ± 0.32
GSLHVNGVVHVSDCHVTY	1.34 ± 0.53
KRGRDV	-0.292 ± 0.49
SLFLDDKEWMKGITKFLMDP	0.419 ± 0.51
IVNSKFKHAGVHPFDSL	-0.125 ± 0.79
FSQGYWLLMA	0.305 ± 0.23
GELRIYRLGHCVCVSMSLPA	1.27 ± 0.36
LSNKRKVSSLLM	inactive
GSPAVGEGG	0.697 ± 0.81
IRSSWIANVLSANSRGRNNQ	0.382 ± 0.33
NPWIAIKWHNTVFLRHIWQM	-0.494 ± 0.22
SKGGCTEFIEKTWNLCSCLV	-1.1 ± 0.78
PVPNYCSEII	-1.1 ± 1
FMYWLGCYIRLLCDNLKQRG	-0.979 ± 0.49
TWDSRYGVACLV	-0.325 ± 0.33
HLVIGFHYSCHGFFLRSFGH	inactive
CNGFVWLFSVGYFNNRFMWF	inactive
PWCTWSFVADLENSYRRWVR	2.57 ± 0.12
REDGSPVGLLGGDHWVDFAQ	1.38 ± 0.19
IYYACL	6.401 ± 0.054
IFNVSLGYLTLIMVHYEFLH	5.733 ± 0.042
FMRMALAGPDKF	-0.738 ± 1.1

Substance	amyloid nucleation score
LLGGWESHSRRNVWYAAGLC	-0.711 ± 1.1
LPMNQGLHYKWLFFAISGGL	inactive
DVFVRSRGKGRFMGSRDNWA	0.76 ± 0.4
LCVEELMTCVCWVRS	0.47 ± 0.26
NTSFFDGTFLY	0.598 ± 0.57
ICYFLKGAFRR	-0.493 ± 0.78
WVCSFHYAEYSLRVIAARFP	0.081 ± 0.8
LNSHSITMLLNSVCGCQSWT	9.201 ± 0.062
FWSSCSLEVYRGFSFAH	3 ± 0.083
TKYDLHPMIVSFECDRHLMW	0.411 ± 0.49
ALMHTNGTV	-0.406 ± 1.1
WFAWYCSSRYRHRR	3.57 ± 0.087
VLCLNFHGANVGWDLTTVYT	1.02 ± 0.17
IKCFAMGETFLAKVVHCTCW	4.04 ± 0.065
FNGVIFNGSSVNYYPFAHSF	5.035 ± 0.036
GHVTYLVTAPHV	2.89 ± 0.14
NWGTGQPYNRMCMVH	inactive
RSENSILHVLHRFVA	-0.559 ± 0.64
KYVVVYDSVYGFSVSGFSLW	0.777 ± 0.19
FALHGEDWSNSTISRNFWSR	-0.031 ± 0.35
AGIFQNSRRNPYRVYMMSVY	3.31 ± 0.06
FRYCAGLMTYRLEFG	2.49 ± 0.068
WPVGLFKSGAISAV	-0.475 ± 0.55
YCGRWELAVWY	-0.679 ± 1.1
TLAFCFFLTKLSVQCFLYPP	0.241 ± 0.8

Substance	amyloid nucleation score
RRAENLMEFGLIRAFY	-0.007 ± 0.63
RSFGLSDPIKTTGKTSV	inactive
THSHTSCKDASSEMRSPCNV	0.264 ± 0.33
TLSCSYVCAPTVYVQSSRPT	1.27 ± 0.18
NELKY	0.02 ± 0.56
NGVKGLKIMDSRSGVT	6.043 ± 0.046
TPLTVYDFPYNEGCCAV	1.7 ± 0.34
AEYRNDMAIEVSSSYCCGY	3.43 ± 0.082
IFNVHMVRF	9.317 ± 0.052
VHKYSSGMDYRSVVNLETLG	0.192 ± 1
HYVERWDDAHVFYGWKSDAV	inactive
NKEKN	2.58 ± 0.13
SSQTGTCFARLQSAVFQVVW	1.69 ± 0.36
TLTILRVTCPLFSDGIMFKR	0.609 ± 0.47
RVLLHSLRKYLIHDCDVYRA	-0.474 ± 0.55
RIYLVAIYL	3.49 ± 0.067
KLYLVWPTCGDGCSFGLRAT	-0.194 ± 0.24
RLTVTGVALVFKGFAAEYGL	5.81 ± 0.066
WILYLRMNYWKRTCYHAIGM	-0.214 ± 0.22
ARYAVDTSITNECSLALYTS	1.23 ± 0.24
PRGAPNVFDFTLNFSLKQVA	-0.551 ± 0.35
QVIFI	inactive
ESDSWNVVITDM	-0.371 ± 0.64
HDDRFSCECYSSDSPESQGL	-0.105 ± 1.1
LCFYPVTTCKPIFRPLYVLP	0.562 ± 0.45

Substance	amyloid nucleation score
LACLVIFMTVSDMDVLSGLF	-0.39 ± 0.21
RGRCFWLEFTFISWLSNDVA	inactive
SRWKGSRF	0.764 ± 0.26
CWNDVIQKMVQYNTINFVLS	4.88 ± 0.063
VYALCMGLAWKGLDYHKGER	5.68 ± 0.07
SVANERR	5.7 ± 0.065
GLMRVRYESHRMKAGSLVSR	1.89 ± 0.36
RRWEL	0.687 ± 0.34
KLRIVMMNRIFTSNL	5.16 ± 0.1
SMNVDTPCSGRWV	-0.249 ± 1.1
RLLNPRVSKVWICAHNARDL	1.1 ± 0.24
YRTPYFIAIQDQRYCLVSLG	-0.87 ± 0.45
NFNCAPFLVLYQQVGQAFSL	6.578 ± 0.06
PSLLFFSCV	-0.366 ± 0.56
IRFTKYNDGCILIMPRDVQV	-0.995 ± 0.55
GVMRSCCEIWTFSIVFRMYT	0.604 ± 0.31
CMRVVDGCFYFLDWSGVTDF	-1.55 ± 1.1
SSMGIVGPYGWFSTSMVNIV	0.895 ± 0.28
SICYFCLFLNIIDSDSIFAV	5.87 ± 0.059
HAILPRCTFHSPMVYALYFT	0.58 ± 0.65
TDCMPMHVYGDYYLMGMSRE	-0.555 ± 0.33
YNTQVCEVVMWGQHPTTLSS	-0.418 ± 0.41
SSLVNTACDTL	-0.036 ± 0.29
NEHGGLVNYGVCISGATYLA	4.21 ± 0.097
CNNSVGVFYKGLTELLCLRS	-0.986 ± 1.1

Substance	amyloid nucleation score
GNFMTECLQARICGPDGEKK	5.12 ± 0.095
WYSVLSFDSFFWPWALLVVY	-1.16 ± 0.49
RSVSGMVWE	0.21 ± 0.74
VIHAFIMYSFGTKDV	0.885 ± 0.32
CMFLFYVKYLNVHSGGLIML	inactive
HRRVCLDAYTFTFLNMVLAW	-0.187 ± 0.65
SESGR	1.74 ± 0.21
YWFARCHFSPAMRIYYRTRA	-0.171 ± 0.62
ENHQCGWGLPLCTVVSR	6 ± 0.077
VLSYSVFTLRLATKIVP	-0.337 ± 1.1
CAISM	4.271 ± 0.039
VVFVCN	inactive
VDFFVFHLVTDSIMSYAHCM	0.633 ± 0.66
GTCFQTINMGGCLIGGPG	2.69 ± 0.14
AFSMRVGDFEIHRFSVVFRR	-0.247 ± 0.53
MSVTWYLGNWVTVL	-1.09 ± 0.79
IIKANVSVRYVFDKFHKMVH	2.83 ± 0.094
TRWSHK	inactive
QMLDTRSLGNDYNYNVYSLA	-1.41 ± 0.39
LYVYGGSLNPGLVMFVPCWK	-0.774 ± 0.76
SYYGFLSFCSKTCMPLMWLE	-0.844 ± 0.54
SARAICMAVLESSESDHNGV	-0.299 ± 0.36
YRGQLARCDILHSWQTVCSM	-0.337 ± 0.49
VYCSSCSVFLLCVKNLSWCV	8.658 ± 0.053
IPIIGITNEVPMSVRFPSIF	-1.07 ± 0.55

Substance	amyloid nucleation score
YIISYFLKMGSQ	4.95 ± 0.092
LCGAKRFMRVQAFEQNVYSR	0.401 ± 0.37
LANNSERMAAQDEVYSNCRM	-0.506 ± 0.24
ITLASDFACLFGVIDYSWIV	0.143 ± 0.49
HIGCYAPASISPLLNGEH	0.458 ± 0.8
LYHDEALVWNLRDVSRIYRL	3.59 ± 0.1
LFPFRASRGPVPYKRDQ	1.89 ± 0.52
VKVHSIESGGLRPWCVGASV	0.747 ± 0.3
FMYHSYSGRPNNHAIGKHFR	-0.405 ± 0.49
NRSGEYRPLMMCVLGPLSTD	0.687 ± 0.24
SSLNM	-0.595 ± 0.61
CGELY	0.506 ± 0.66
PFMRYPWYFIAGYV	-1.52 ± 0.49
HSLFSIAWFVAQYMNFGPDN	3.1 ± 0.18
NVKTKLCAGSKYSFPF	0.213 ± 0.43
TEELRRFCGSFCTGYISMVW	inactive
LIVCRFDFPSNFSVDFFRVM	0.14 ± 0.74
LESVWHILGGFGIMVFYITK	inactive
NERQEIIPDSSPETHVSNIT	1.12 ± 0.12
FKDSDVEEWLNVKIIYWGVC	-0.604 ± 0.41
QDGFRMYVLFDYNQCREFCS	1.23 ± 0.26
KGGNIHSRVTYR	-0.669 ± 0.37
WFGYIYFHTTYSFFGHPAAT	-1.5 ± 1.1
TKAYNTFLRPETVRLSESTK	0.9 ± 0.18
SCCRGEF	-0.235 ± 0.61

Substance	amyloid nucleation score
QVLIIPLWKNGLRTIIRWL	0.106 ± 1
ASHMRSDSAL	inactive
NCYGVVYSLCNMEVLSMWHE	7.723 ± 0.036
SFDFHNGGDIEYLV	inactive
RVSLLMYGWRVGRTNVCGLC	1.41 ± 0.53
ILNNMIL	2.55 ± 0.21
IYAQAFFVYHTLFWGGGDQW	0.495 ± 0.16
YRVNALKQIMLRLKQFCRLA	-0.647 ± 0.64
HNTAMGLELVPQKKNGVK	-0.06 ± 1
YEVHDDLYYTNKLRTRANGV	1.46 ± 0.43
SFDSVELARGTASCRVAYFV	0.731 ± 0.35
YSLLNVSHVVFTSA	-0.71 ± 0.61
SCPMTSYGE	0.319 ± 0.8
HNSMSWFR	4.45 ± 0.058
RSVSNDKYVFWFLRLVDVKA	0.225 ± 0.26
YPFILVVTIEYACLVRRLGV	-0.309 ± 0.23
CCYVHWILGAGDREGRLWRQ	3.86 ± 0.13
MIQRFVISSGYRGFYLTLLI	inactive
WDTSGRFVLNWVFWEGHPKM	0.768 ± 0.56
TVSMNMRCCVECHYIKERYL	4.16 ± 0.051
DFIKMVV	3.73 ± 0.12
